Assay results as given in patent publication US20250000991A1, “NECTIN-4 ANTIBODIES AND ANTIBODY-DRUG CONJUGATES” (Eli Lilly and Company, priority 2023, published 2025).

Key:
[1] = biological target: human Nectin-4-eGFP on T24 cells (clone 3) (human) (UniProt Q96NY8); test: cell-based or functional assay
[2] = biological target: human nectin-4 on cells (human) (UniProt Q96NY8); test: cell-based or functional assay

B1: enfortumab ADC (enfortumab conjugated as in Formula XI, DAR of 8) (antibody, INN chains, looked up, V domains shown)
VH: EVQLVESGGGLVQPGGSLRLSCAASGFTFSSYNMNWVRQAPGKGLEWVSYISSSSSTIYYADSVKGRFTISRDNAKNSLSLQMNSLRDEDTAVYYCARAYYYGMDVWGQGTTVTVSS
VL: DIQMTQSPSSVSASVGDRVTITCRASQGISGWLAWYQQKPGKAPKFLIYAASTLQSGVPSRFSGSGSGTDFTLTISSLQPEDFATYYCQQANSFPPTFGGGTKVEIKR
modifications: drug conjugate Formula XI, DAR 8
Q: B1 was tested. Which % activity (max GFP signal loss compared to enfortumab mAb (100%)) [1] did it give?
A: 120%

Q: What about the EC50 (nM) of nectin-4-eGFP signal loss [1] of the same binder?
A: 2.55 nM

Q: What about the Cytotoxicity IC50, NCI H1781 cells [2] of the same binder?
A: 0.0409 nM

Q: And the Cytotoxicity IC50, T24 Nectin-4 clone 108 cells [2]?
A: 0.0747 nM
